Source: the Human Domainome abundance scans (Beltran et al. 2025)
± gives the uncertainty stated by the source.

B1: Formin-binding protein 4, residues 200 to 261; numbered along this chain, Q8N3X1 (parent)
chain: SGWQYDTQCSLAGVGIEMGDWQEVWDENTGCYYYWNTQTNEVTWELPQYLATQVQGLQHYQP
B2: SAM and SH3 domain-containing protein 1, residues 630 to 700; numbered along this chain, O94885 (parent)
chain: GRPPQPKSVEDLLDRINLKEHMPTFLFNGYEDLDTFKLLEEEDLDELNIRDPEHRAVLLTAVELLQEYDSN

Variants of: B1
Assay: abundance fitness (aPCA) (normalised: wild type 0, dead -1); higher = more abundant; growth selection in yeast, the domain comes from the species named
Conditions: Homo sapiens

In order of rising abundance fitness:
1. P62E  -0.469 ± 0.42
2. Q61W  -0.423 ± 0.1
3. P62V  -0.423 ± 0.16
4. Q61I  -0.299 ± 0.12
5. H59Y  -0.296 ± 0.08
6. P62R  -0.29 ± 0.093
7. Q61Y  -0.287 ± 0.14
8. P62I  -0.268 ± 0.21
9. Q61H  -0.266 ± 0.12
10. Q61F  -0.263 ± 0.1
11. P62Q  -0.237 ± 0.16
12. Q61C  -0.203 ± 0.1
13. Q61P  -0.201 ± 0.1
14. P62Y  -0.161 ± 0.23
15. Q61M  -0.16 ± 0.093
16. Q61L  -0.132 ± 0.054
17. H59R  -0.125 ± 0.062
18. H59P  -0.115 ± 0.077
19. Q61N  -0.108 ± 0.15
20. P62F  -0.103 ± 0.26
21. Q61R  -0.101 ± 0.065
22. H59L  -0.083 ± 0.052
23. Q61S  -0.083 ± 0.069
24. Y60W  -0.068 ± 0.081
25. Q61K  -0.046 ± 0.093
26. Q61D  -0.034 ± 0.1
27. H59S  -0.029 ± 0.06
28. P62G  -0.028 ± 0.11
29. Q61G  -0.018 ± 0.069
30. P62L  -0.011 ± 0.14
31. P62T  -0.009 ± 0.12
32. P62C  -0.006 ± 0.2
33. Y60N  0.01 ± 0.13
34. H59N  0.033 ± 0.12
35. Y60C  0.035 ± 0.077
36. Y60K  0.038 ± 0.099
37. P62S  0.045 ± 0.11
38. Q61E  0.065 ± 0.08
39. Y60S  0.066 ± 0.062
40. H59M  0.082 ± 0.067
41. H59Q  0.083 ± 0.084
42. P62H  0.084 ± 0.32
43. Y60L  0.086 ± 0.057
44. Y60H  0.092 ± 0.099
45. Y60V  0.099 ± 0.057
46. Y60T  0.101 ± 0.081
47. Y60G  0.103 ± 0.058
48. Y60R  0.112 ± 0.054
49. Y60P  0.113 ± 0.09
50. Q61A  0.115 ± 0.064
51. Y60A  0.115 ± 0.068
52. Y60E  0.117 ± 0.085
53. Y60Q  0.123 ± 0.12
54. Y60F  0.124 ± 0.087
55. P62A  0.124 ± 0.11
56. H59T  0.147 ± 0.07
57. Y60I  0.153 ± 0.092
58. Y60M  0.177 ± 0.081
59. Y60D  0.19 ± 0.1
60. P62K  0.194 ± 0.17
61. P62M  0.218 ± 0.32
62. Q61T  0.263 ± 0.086

Variants of: B2
Assay: as above
Conditions: Homo sapiens

In order of rising abundance fitness:
1. N48V  -1.21 ± 0.2
2. G29F  -1.2 ± 0.14
3. S8E  -1.17 ± 0.25
4. K37Y  -1.11 ± 0.12
5. N17P  -1.08 ± 0.094
6. N48I  -0.985 ± 0.24
7. A61I  -0.983 ± 0.11
8. L39K  -0.928 ± 0.11
9. G29Y  -0.895 ± 0.1
10. F25Y  -0.893 ± 0.091
11. L33C  -0.881 ± 0.11
12. L44Q  -0.873 ± 0.089
13. I49L  -0.868 ± 0.052
14. G29D  -0.837 ± 0.1
15. L12D  -0.784 ± 0.089
16. A56P  -0.772 ± 0.053
17. R55D  -0.77 ± 0.085
18. L65E  -0.758 ± 0.097
19. S8P  -0.758 ± 0.087
20. D69W  -0.752 ± 0.093
21. I16K  -0.735 ± 0.097
22. D14F  -0.734 ± 0.068
23. H54P  -0.733 ± 0.066
24. R55S  -0.731 ± 0.06
25. F36W  -0.712 ± 0.089
26. D34W  -0.704 ± 0.082
27. H21N  -0.689 ± 0.071
28. I16Q  -0.682 ± 0.078
29. D34Y  -0.679 ± 0.059
30. F36E  -0.678 ± 0.097
31. L47I  -0.671 ± 0.058
32. D51A  -0.659 ± 0.056
33. P6T  -0.653 ± 0.072
34. L58R  -0.651 ± 0.056
35. D11G  -0.649 ± 0.08
36. N28E  -0.647 ± 0.098
37. K19D  -0.643 ± 0.079
38. R2P  -0.632 ± 0.091
39. T60P  -0.63 ± 0.064
40. L58F  -0.596 ± 0.099
41. Q66I  -0.563 ± 0.054
42. Y30L  -0.557 ± 0.049
43. N28W  -0.553 ± 0.071
44. S8Q  -0.55 ± 0.1
45. F36I  -0.531 ± 0.069
46. L18C  -0.523 ± 0.066
47. L58S  -0.516 ± 0.054
48. T35L  -0.515 ± 0.047
49. P52V  -0.5 ± 0.05
50. A61H  -0.497 ± 0.066
51. E53L  -0.486 ± 0.045
52. P6E  -0.481 ± 0.084
53. D45F  -0.48 ± 0.049
54. T24S  -0.464 ± 0.044
55. F27W  -0.449 ± 0.054
56. T60Y  -0.449 ± 0.053
57. P23V  -0.433 ± 0.049
58. R15W  -0.411 ± 0.071
59. E10M  -0.398 ± 0.06
60. D43R  -0.385 ± 0.043
61. D32Q  -0.382 ± 0.047
62. E10P  -0.357 ± 0.05
63. P52S  -0.354 ± 0.039
64. Q66S  -0.331 ± 0.039
65. T24N  -0.314 ± 0.051
66. R15F  -0.286 ± 0.053
67. N17S  -0.279 ± 0.04
68. P3K  -0.279 ± 0.055
69. E67V  -0.232 ± 0.044
70. K37A  -0.226 ± 0.047
71. L26T  -0.225 ± 0.043
72. Q66W  -0.21 ± 0.061
73. L59K  -0.206 ± 0.057
74. D43T  -0.19 ± 0.039
75. L33I  -0.187 ± 0.056
76. L26Y  -0.181 ± 0.055
77. T24V  -0.179 ± 0.041
78. D14S  -0.168 ± 0.039
79. D51N  -0.159 ± 0.049
80. Q5V  -0.149 ± 0.048
81. H21F  -0.134 ± 0.046
82. D34N  -0.123 ± 0.041
83. L26A  -0.117 ± 0.04
84. D32N  -0.085 ± 0.049
85. I16C  -0.067 ± 0.063
86. P3L  -0.036 ± 0.036
87. Q5H  -0.033 ± 0.055
88. N71C  -0.009 ± 0.12
89. Y68P  0.015 ± 0.047
90. G1T  0.016 ± 0.087
91. Y68T  0.031 ± 0.045
92. P3I  0.035 ± 0.047
93. D45I  0.037 ± 0.039
94. P4I  0.058 ± 0.057
95. T35A  0.067 ± 0.042
96. R50L  0.091 ± 0.035
97. G1Y  0.098 ± 0.075
98. F27Y  0.122 ± 0.045
99. L64W  0.148 ± 0.043
100. V57N  0.15 ± 0.048
101. E40G  0.171 ± 0.044
102. P23D  0.199 ± 0.047
103. E40R  0.337 ± 0.035
104. V57A  0.394 ± 0.037
105. F27D  0.446 ± 0.046
